Reference: US20220324970A1 (Janssen / Centocor, published 2022)

Assays:
[1] = target: T1, human pIgR extracellular domain 1 (D1) (human, UniProt P01833 19-127); test: ratio of the second to the first EC50 column
T1 construct: HIS-tagged construct made in HEK293 cells; also called hpIgR domain-1

[2] = target: T2, human pIgR extracellular domain 1-domain 2 (D1-D2) (human, UniProt P01833 19-240); test: ratio of the second to the first EC50 column
T2 construct: HIS-tagged construct made in HEK293 cells

hpIgR_D3 = target: T3, hpIgR_D3; test: ECL (MSD) heat map, HIS-tagged construct captured via anti-HIS, anti-human-Fc detection;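 note: VHH-mono-Fc molecules tested at 100 µg/ml for 2 h on captured His-tagged pIgR constructs (10 µg/ml), read-out as electrochemiluminescence units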
T3 construct: HIS-tagged construct from HEK293 cells; also called human pIgR extracellular domain 3 (D3); hD3
T3 HIS-tagged domain construct: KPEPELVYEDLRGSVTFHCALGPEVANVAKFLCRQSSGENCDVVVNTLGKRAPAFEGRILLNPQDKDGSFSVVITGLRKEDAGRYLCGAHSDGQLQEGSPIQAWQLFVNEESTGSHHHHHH

[3] = target: T4, human pIgR, full-length, on cells (human, UniProt P01833 19-764); test: flow cytometry on MDCK-hpIgR cells; summary table, repeats Table 1
T4 construct: whole, on cells; Used for the flow cytometry EC50 values (MDCK-hpIgR) and for the transcytosis read-outs; also called hpIgR; cell-surface hpIgR

[4] = target: T5, human pIgR extracellular domain (ECD) (human, UniProt P01833 19-638); test: ECL (MSD), hpIgR-ECD coated, anti-VHH detection
T5 construct: also called hpIgR ECD
Experimental: To check whether VHH recognizes a buried epitope on pIgR, EC₅₀ values were measured for VHH-mono-Fc molecules binding to hpIgR-ECD protein by electrochemiluminescence using two different detection antibodies, an anti-Fc antibody and an anti-VHH antibody. pIgR ECD (10 μg/ml in PBS) was coated on high-bind MSD plates for 2 hours at RT with 1000 rpm, incubated with blocking buffer for 1 hour at RT, incubated with VHH-mono-Fc molecules (increasing concentrations in PBS) for 2 hours at RT with 1000 rpm, washed 3× with PBT, incubated with ruthenylated secondary antibody (2 μg/ml in PBS) for 1 hour at RT with 1000 rpm, washed 3× with PBT and read plates in 40 ul reading buffer using the MSD imager. EC50 was calculated by fitting log VHH concentration versus log ECLU in Prism (Graphpad). The increase in EC₅₀ (>50-fold) due to anti-VHH detection was used as a measure to determine whether VHH recognized buried epitope on pIgR.

[5] = target: T4, human pIgR, full-length, on cells; test: cell-based or functional assay
hpIgR_D2-D3 = target: T6, hpIgR_D2-D3; test: ECL (MSD) heat map, HIS-tagged construct captured via anti-HIS, anti-human-Fc detection
T6 construct: HIS-tagged construct from HEK293 cells; also called human pIgR extracellular domain 2-domain 3 (D2-D3); hD2-D3
T6 HIS-tagged domain construct: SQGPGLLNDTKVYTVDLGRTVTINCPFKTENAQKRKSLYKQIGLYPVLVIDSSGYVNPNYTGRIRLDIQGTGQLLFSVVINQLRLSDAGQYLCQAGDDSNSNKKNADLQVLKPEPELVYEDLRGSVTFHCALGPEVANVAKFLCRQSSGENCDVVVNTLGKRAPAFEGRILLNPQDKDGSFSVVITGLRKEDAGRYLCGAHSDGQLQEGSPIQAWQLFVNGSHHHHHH

[6] = target: T4, human pIgR, full-length, on cells; test: flow cytometry on MDCK-hpIgR cells
Experimental: Flow Cytometry was performed as follows. To test whether VHH-mono-Fc molecules recognize cell-surface hpIgR, Madin-Darby canine kidney (MDCK) cells engineered to express full-length hpIgR were used. Cells were cultured in Dulbecco's modified Eagle's medium containing 10% fetal calf serum at 37° C. with 5% CO₂. Cells were split into equal fractions (≈70,000 cells) and incubated with increasing concentrations of VHH-mono-Fc molecules for 30 min at 4 C. […] Cells were washed twice with cold staining buffer, resuspended in running buffer and analyzed with an iQue Screener (IntelliCyt Corporation). Binding was assessed by RL1 (A647) Geomeans from the live cell population and EC50 was calculated by fitting log VHH concentration versus MFI in Prism (Graphpad).

[7] = target: T1, human pIgR extracellular domain 1 (D1); test: BLI, relative to full-length hpIgR ECD
Target sequence in this assay (P01833 other isoform, or with tags, fused parts or gaps limits assumed): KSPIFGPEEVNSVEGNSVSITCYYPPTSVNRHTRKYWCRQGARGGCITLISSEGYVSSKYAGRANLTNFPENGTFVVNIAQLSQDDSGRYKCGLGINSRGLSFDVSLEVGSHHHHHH
Experimental: (§1) Bio-layer Interferometry was performed as follows. […] Data were collected with Octet Data Acquisition version 7.1.0.87 (ForteBio) and analyzed using Octet Data Analysis version 7.1 (ForteBio). To measure binding kinetics between VHH-mono-Fc molecules and HIS-tagged pIgR proteins, VHH-mono-Fc was immobilized on amine-reactive generation-2 (ARG2) biosensors according to manufacturer's instructions and increasing concentrations of pIgR proteins were exposed to sensor-immobilized VHH. In some cases, HIS-tagged pIgR proteins were immobilized on anti-HIS biosensors and exposed to increasing concentrations of VHH-mono-Fc molecules. Association and dissociation rates were measured by the shift in wavelength (nm). […] All reactions were performed at 25° C. in PBS.
(§2) (Full-length hpIgR ECD was purchased from R&D Systems.) The five constructs (D1-D2, D1, D1_tCDR1, D1_tCDR2, D1_tCDR3) were expressed and purified from HEK293 cells using immobilized metal ion affinity chromatography. Three hpIgR domain-1 CDR mutants (D1_tCDR1, D1_tCDR2, D1_tCDR3) contain respective teleost fish CDR on a hpIgR domain-1 framework. His-tagged pIgR constructs were immobilized on anti-HIS biosensors and binding of VHH-mono-Fc molecules to pIgR constructs were measured by bio-layer interferometry.

[8] = target: T5, human pIgR extracellular domain (ECD); test: BLI, relative to full-length hpIgR ECD
Experimental: as §1, §2

[9] = target: T2, human pIgR extracellular domain …; test: BLI, relative to full-length hpIgR ECD
Target sequence in this assay (P01833 other isoform, or with tags, fused parts or gaps limits assumed): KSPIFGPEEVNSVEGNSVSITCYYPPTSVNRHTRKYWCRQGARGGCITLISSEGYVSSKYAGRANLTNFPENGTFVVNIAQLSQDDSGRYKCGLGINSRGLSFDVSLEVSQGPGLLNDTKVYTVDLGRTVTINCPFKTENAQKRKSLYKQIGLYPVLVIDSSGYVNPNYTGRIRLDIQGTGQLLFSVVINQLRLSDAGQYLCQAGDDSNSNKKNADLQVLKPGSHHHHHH
Experimental: as §1, §2

[10] = target: T7, hpIgR domain-1 with teleost fish CDR3 (hD1 tCDR3) (human, UniProt P01833 19-127, limits assumed); test: BLI, relative to full-length hpIgR ECD
T7 construct: CDR-swapped hpIgR domain-1 mutant, HIS-tagged, made in HEK293 cells; not shown: HIS tag
Target sequence in this assay (P01833 other isoform, or with tags, fused parts or gaps limits assumed): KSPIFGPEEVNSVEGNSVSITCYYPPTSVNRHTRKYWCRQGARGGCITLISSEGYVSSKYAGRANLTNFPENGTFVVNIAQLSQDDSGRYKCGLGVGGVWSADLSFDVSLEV

[11] = target: T8, hpIgR domain-1 with teleost fish CDR1 (hD1 tCDR1) (human, UniProt P01833 19-127, limits assumed); test: BLI, relative to full-length hpIgR ECD
T8 construct: CDR-swapped hpIgR domain-1 mutant, HIS-tagged, made in HEK293 cells; not shown: HIS tag
Target sequence in this assay (P01833 other isoform, or with tags, fused parts or gaps limits assumed): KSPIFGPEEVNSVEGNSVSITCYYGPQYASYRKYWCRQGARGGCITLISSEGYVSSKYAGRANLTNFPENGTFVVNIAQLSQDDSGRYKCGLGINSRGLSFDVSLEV

[12] = target: T5, human pIgR extracellular domain (ECD); test: BLI (Octet), VHH-mono-Fc and hpIgR ectodomain
[13] = target: T5, human pIgR extracellular domain (ECD); test: BLI; summary table, repeats Table 1
[14] = target: T4, human pIgR, full-length, on cells; test: cell-based or functional assay; remark: listed apart in the source
[15] = target: T1, human pIgR extracellular domain 1 (D1); test: BLI, HIS-tagged pIgR construct on anti-HIS biosensors
Experimental: as §1, §2

[16] = target: T2, human pIgR extracellular domain …; test: as above
Experimental: as §1, §2

[17] = target: T7, hpIgR domain-1 with teleost fish CDR3 …; test: as above
Experimental: as §1, §2

[18] = target: T8, hpIgR domain-1 with teleost fish CDR1 …; test: as above
Experimental: as §1, §2

[19] = target: T4, human pIgR, full-length, on cells; test: flow cytometry on MDCK-hpIgR cells; summary table, repeats Table 1; remark: listed apart in the source
[20] = target: T1, human pIgR extracellular domain 1 (D1); test: ECL (MSD); headed 'Anti-Fc' on the sheet, but its ECD values are the anti-VHH values of Table 2, so anti-VHH detection
[21] = target: T2, human pIgR extracellular domain …; test: as above

T4 sequence (P01833 19-764): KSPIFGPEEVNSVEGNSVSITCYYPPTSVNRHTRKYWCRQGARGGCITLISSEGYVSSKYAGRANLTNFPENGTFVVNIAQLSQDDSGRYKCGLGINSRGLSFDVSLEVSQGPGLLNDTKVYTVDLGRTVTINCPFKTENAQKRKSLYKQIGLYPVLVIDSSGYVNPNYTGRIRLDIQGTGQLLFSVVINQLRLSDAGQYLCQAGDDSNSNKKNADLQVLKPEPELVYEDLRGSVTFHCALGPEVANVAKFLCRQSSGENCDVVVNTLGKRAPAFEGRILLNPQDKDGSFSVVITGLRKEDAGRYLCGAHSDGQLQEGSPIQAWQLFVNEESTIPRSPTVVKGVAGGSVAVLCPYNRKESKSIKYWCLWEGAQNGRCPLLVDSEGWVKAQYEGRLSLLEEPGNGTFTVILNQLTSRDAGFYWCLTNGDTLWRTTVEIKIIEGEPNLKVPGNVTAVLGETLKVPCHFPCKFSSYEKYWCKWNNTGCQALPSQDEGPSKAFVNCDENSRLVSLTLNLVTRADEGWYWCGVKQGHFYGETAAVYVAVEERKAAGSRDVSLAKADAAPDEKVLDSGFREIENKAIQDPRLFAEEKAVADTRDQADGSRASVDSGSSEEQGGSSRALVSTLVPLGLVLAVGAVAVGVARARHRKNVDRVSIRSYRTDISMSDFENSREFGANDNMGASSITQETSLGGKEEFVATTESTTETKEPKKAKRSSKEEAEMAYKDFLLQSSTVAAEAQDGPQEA
T5 sequence (P01833 other isoform, or with tags, fused parts or gaps): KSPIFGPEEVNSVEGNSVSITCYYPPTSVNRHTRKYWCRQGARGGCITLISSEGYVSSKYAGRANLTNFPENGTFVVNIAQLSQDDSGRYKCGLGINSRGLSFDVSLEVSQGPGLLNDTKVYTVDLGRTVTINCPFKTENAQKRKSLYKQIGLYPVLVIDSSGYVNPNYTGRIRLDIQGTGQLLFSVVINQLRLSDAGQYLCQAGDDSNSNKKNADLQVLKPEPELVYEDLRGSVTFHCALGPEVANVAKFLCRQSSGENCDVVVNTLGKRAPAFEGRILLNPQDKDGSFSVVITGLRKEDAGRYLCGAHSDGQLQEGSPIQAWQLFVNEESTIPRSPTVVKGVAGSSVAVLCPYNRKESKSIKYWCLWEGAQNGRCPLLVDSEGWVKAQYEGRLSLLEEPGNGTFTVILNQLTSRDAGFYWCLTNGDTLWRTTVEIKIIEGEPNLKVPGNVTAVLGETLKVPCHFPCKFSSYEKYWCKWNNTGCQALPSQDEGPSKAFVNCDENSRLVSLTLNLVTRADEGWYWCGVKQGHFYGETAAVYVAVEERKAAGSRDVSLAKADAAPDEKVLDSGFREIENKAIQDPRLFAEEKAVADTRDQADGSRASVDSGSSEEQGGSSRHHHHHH

B1: VHH2-linker-mono-Fc protein (Fc fusion)
chain: EVQVVESGGGLVQAGGSLKLACAAPGLTFSSYRMGWFRQAPGQEREFVAAIDWNGRGTYYRYYADSVKGRSTISRDNAKNTVYLQMNSLKPEDTAVYYCAATTVLTDPRVLNEYATWGQGTQVTVSSEPKTPKPQPQPQLQPQPNPTTESKSPKSPAPELLGGPSVFLFPPKPKDTLMISRTPEVTCVVVDVSHEDPEVKFNWYVDGVEVHNAKTKPREEQYNSTYRVVSVLTVLHQDWLNGKEYKCKVSNKALPAPIEKTISKAKGQPREPQVYTKPPSREEMTKNQVSLSCLVKGFYPSDIAVEWESNGQPENNYKTTVPVLDSDGSFRLASYLTVDKSRWQQGNVFSCSVMHEALHNHYTQKSLSLSPGK
notes: also called VHH2-mono-Fc; mpIgR_338
For B1, the Fold change [1] was 1.2, the Fold change [2] was 1.2 and the binding result (hpIgR_D3) was “no binding (tested: 100 ug/ml (single concentration))”. The EC50 [3] was 6.3 nM, the EC50 [4] was 4 nM and the “For. Trans. (Fold Incr.)” value [5] was 21 fold. The “Rev. Trans (Fold Incr.)” value [5] was 5.7 fold, the binding result (hpIgR_D2-D3) was “no binding (tested: 100 ug/ml (single concentration))” and the EC50 [6] was 6.3 nM. For the same binder, the “Fold change in KD” value [7] was 0.7 fold, the “Fold change in KD” value [8] was 1 fold and the “Fold change in KD” value [9] was 1 fold. The “Fold change in KD” value [10] was 0.7 fold, the “Fold change in KD” value [11] was 1 fold and the Kd [12] was 21 nM. For the same binder, the Kd [13] was 21 nM, the “Transcytosis (Fold Incr.)” value [14] was 34.2 fold and the Kd [15] was 15.5 nM. For the same binder, the Kd [16] was 23 nM, the Kd [17] was 14.9 nM and the Kd [18] was 21.3 nM. The EC50 [19] was 6.3 nM, the EC50 [20] was 8.1 nM and the EC50 [21] was 1.8 nM.

B2: VHH3-linker-mono-Fc protein (Fc fusion)
chain: QLQLVESGGGLVQPGGSLRLSCAASGSIFSINVMGWYRQAPGKQRELVARINGGGITHYAESVKGRFTISRDNAKNTVYLQMNSLKPEDTAAYYCKADVFGSSGYVETYWGQGTQVTVSSEPKTPKPQPQPQLQPQPNPTTESKSPKSPAPELLGGPSVFLFPPKPKDTLMISRTPEVTCVVVDVSHEDPEVKFNWYVDGVEVHNAKTKPREEQYNSTYRVVSVLTVLHQDWLNGKEYKCKVSNKALPAPIEKTISKAKGQPREPQVYTKPPSREEMTKNQVSLSCLVKGFYPSDIAVEWESNGQPENNYKTTVPVLDSDGSFRLASYLTVDKSRWQQGNVFSCSVMHEALHNHYTQKSLSLSPGK
notes: made in CHO cells; also called VHH3-mono-Fc; hpIgR_021
With B2 the Fold change [1] was 5.7, the Fold change [2] was 11.9 and the binding result (hpIgR_D3) was “no binding (tested: 100 ug/ml (single concentration))”. The EC50 [3] was 6.4 nM, the EC50 [4] was 28.6 nM and the “For. Trans. (Fold Incr.)” value [5] was 1 fold. For the same binder, the “Rev. Trans (Fold Incr.)” value [5] was 1 fold, the binding result (hpIgR_D2-D3) was “no binding (tested: 100 ug/ml (single concentration))” and the EC50 [6] was 6.4 nM. For the same binder, the “Fold change in KD” value [7] was 0.8 fold, the “Fold change in KD” value [8] was 1 fold and the “Fold change in KD” value [9] was 1.3 fold. The “Fold change in KD” value [10] was 0.8 fold, the “Fold change in KD” value [11] was 7.7 fold and the Kd [12] was 5 nM. The Kd [13] was 5 nM, the “Transcytosis (Fold Incr.)” value [14] was 2.6 fold and the Kd [15] was 7.7 nM. For the same binder, the Kd [16] was 13.3 nM, the Kd [17] was 7.5 nM and the Kd [18] was 77 nM. For the same binder, the EC50 [19] was 6.4 nM, the EC50 [20] was 17.6 nM and the EC50 [21] was 13.7 nM.
